# Measured values from the nanobody polyreactivity screen of Harvey et al. (2022).
# Experiment: yeast display, Sf9 membrane polyspecificity reagent, FACS + sequencing; frameworks hold sequencing errors
# In short: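 Galactose induction of a Saccharomyces cerevisiae BJ5465 synthetic nanobody display library ran 36–48 hours. The cells were then stained for 1 hour at 4 °C with 10% biotinylated, detergent-solubilized Sf9 membrane reagent, pulled down on streptavidin microbeads and FACS-sorted into low and high (top ~1%) gates on expression and reagent-binding fluorescence. Labels for polyreactivity follow the gate of origin.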
row,Sequence,polyreactivity (PSR sort gate)
1,QVQLVESGGGLVQAGGSLRLSCAASGSIFQRNTIGWYIQAPGKERELVAAISRSGGSTYYADSVKGLFTISRDNAKITVYLQMKSLKPEDTEVYYCAVSGGTSRRYYYWGQGTKVTVSS,high polyreactivity
2,QVQLVESGGGLVQAGGSLRLSCAASGGIFGSYAMGWYRHAPGKERELVADITQSGGRTRYADSVKGRFTISRDNAKNTVYLQMNSLKPEDTAVYYCNAQDVDSGDDYDYWGQGTQVTVSS,low polyreactivity
3,QVQLVESGGGLVQAGGSLRLSCAASGNTYLYYGMGWYRQSPGKERDLVAAITQSGGTTYYADSVKGRFTISRDNAKNTVYLQLNSLKQEDTAVYYCAATRYYYYWYVYDDRGDYWGQGTQVTVSS,low polyreactivity
4,QVQLVESGGGLVQAGGSLRLSCAASGRTFIWYVMGWYRQAPGKERELVATISYGGITYYADSVKRRFTISRDNAKNTVYLQMNSLKPEDTAVYYCAAYKYTHKPHGDYWGQGTQVTVSS,high polyreactivity
5,QVQLVESGGGLVQAGGSLRLSCAASGRIYWNTMGWYRQAPGKERELVASISTGGGRTYYADSVKGRFTISRDNAKNTVYLQMNSLKPEDTAVYYCAVRSYGHGFDYWGQGTQVTVSS,high polyreactivity
6,QVQLVDSGGRLVQAGGSLRLSCSASGIIIPSYAMGWYRQAPGKERELVAAISGRGGRTYYSDSVKGRFTISRDNAKNSVYLQMNSLKPEDTAVYYCAASGTSSSRKSYYWGQGTQVTVSS,high polyreactivity
7,QVQLVESGGGLGQAGGSLSLTCAASGSIFARNAMGWYRQAPGKERELVAAISTGGGSTYYADSVKGRFTISRDNAQNTVYLQMNSLKPEETEVYYCAAVGRSYYGHDYWGQGTQVTVSS,low polyreactivity
8,QVQLVESGGGVVQAGGSLRLSCAASGSTFVFYTMGWSRQAPGKEREFVASISGSGGSTYYADSVKGRFTISRDNAKNTVYLQMNSLKPEDTAVYYCAAGYPYYYWTPYYYWGQGTQVTVSS,high polyreactivity
9,QVQLVESGGGLVQAGGSLRLSCAASGSTFAYNAMGWYRQAPGKERELVAAIRISGGTTYYADSVKGRFTISRDNAKNTVYLQMNSLKREDTAVYYCAAGTAGTTGSPKFSGYGYDYWGQGTQVTVSS,low polyreactivity
10,QVQLVESGGGLVQAGGSLRLSCAASGSTLRGYALGWYRQAPGKERELVAAISKNGGSTYYADSVKGRFTISRDNAKNTVYLQMNSLNPEDTAVYYCAAYKAVPHYYYWGQGTQVTVSS,high polyreactivity
11,QVQLVESGGGLVQAGGRLRLSCAASGRIFPVNAMGWYRQAPGKERELVAGITWSGDGSTYYADSVKGRFTISRDNAKNTVYLQMNSLKPEDTAVYYCAARLNLQGRYDYSGQGTQVTVSS,low polyreactivity
12,QVQLVESGGGLVQAGGSLRLSCAASGFTFFYYVMGWYRQAPGKERELVAAITRGGSTYYADSVKGRFTISRDNAKNTVYLQMNSLKPEDTAVYYCNVAEPGYYYGYGDYGMDYWGQGTQVTVSS,high polyreactivity
13,QVQLVESGGGLVQAGGSLRLSCAASGSIFDNYAMGWYRQAPGKERELVAAINFSDGDTYYADSVKGRFTISRDNAKNTVYLQMNSLKPEDTAVYYCAAEVWYPPEYYDEYDYWGQGTQVTVSS,low polyreactivity
14,QVQLVESGGGLVQAGGSLRLSCAASGSTFQPYAMGWYRQAPGKERELVAAISWSGVSTSYADSVKGRFTISRDNAKNTVYLQMNSLKPEETAVYYPFYEYYYWVQGTQVTVSS,low polyreactivity
15,QVQLVESGGGLVQAGGSLRLSCAASGRTFNRYAMGWYRQAPGKEREFVASITRSGGSTYYADSVKGRFTISRDNAKNTVYLQMNSLKPEDTAVYYCAAQLRYKYDYWGQGTQVTVSS,high polyreactivity
16,QVQLVESGGGLVQAGGSLRLSCAASGRTFKFNTMGWYRQAPGKEREVVAAISWTGAITHYADSVKGRFTISRDNAKNTVYLQMNSLKPEDTAVYYCNSDPYRRIYNYWGQGTQVTVSS,low polyreactivity
17,QVQLVESGGGLVQAGGSLRLSCADSGRIFASYAMGWYRQAPRKERELVAAISWRGGTTYYADSVKGRFTSSRDNAKNTVYLQMNSLKPEDTAVYYCATTSSLGSWGYDYWGQGTQVTVSS,high polyreactivity
18,QVQLVESGGGLVQAGGSLRLSCAASGRTFRYNTMGWYRQAPGKERELVAAITWSGGRTYYADSVKGRFTISRDNAKNTVYLQMNSLKPEDTAVYYCNADVPYSRSIYGFYYWGQGTQVTVSS,high polyreactivity
19,QVQLVESGGGLVQAGGSLRLSCAASGSIFVGYAMGWYRQAPGKERELVAAISTRGGSTYYADSVKGRFTISRDNAKNTVYLQMNSLKPEDTAVYDCAADYLDSTYGYVYGWDDYWGQGTQVTVSS,low polyreactivity
20,QVQLVESGGGLVQEGGSLRLSCAASGSTFPLYTMGWYRQAPGKERELVATISRGGSTYYADSVKGRFTISRDNAKNTVYLQMNSLKPEDTAVYYCAARPFGFKFDYWGQGTQVTVSA,low polyreactivity
21,QVQLVESGRGLVQAGGSLRLSCAASGSTFPGNAMGWYRQAPGKERELVAAIRDRGTSTYYADSVKGRFTISRDNAKNTVYLQMNSLKPEDTAVYYCAAASSVAKGRWRLYDYWGQGTQVTVSS,high polyreactivity
